Assay results from publication PMC12077208 (2025).

Target: nuclear translocation factor 2-like (NTF2L) domain of human G3BP1 (human, UniProt Q13283-1 1-138)
Experiment: ITC

Sequence of nuclear translocation factor 2-like (NTF2L) domain of human G3BP1 (Q13283 other isoform, or with tags, fused parts or gaps): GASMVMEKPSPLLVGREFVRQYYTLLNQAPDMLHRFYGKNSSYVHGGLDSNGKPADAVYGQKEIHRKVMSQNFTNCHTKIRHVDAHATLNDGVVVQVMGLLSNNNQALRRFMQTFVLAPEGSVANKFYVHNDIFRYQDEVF

Binder: ITFGDFNDGEIESLSSELLTFGDFLP [CHIKV-26 peptide (residues Ile473 to Pro498 of CHIKV nsP3, without the α2 region)]
- Kd: 7.8 µM

B1: CHIKV nsP3 peptide CHIKV-43 (residues Glu469-Thr511) (peptide)
chain: GPLGSETFPITFGDFNDGEIESLSSELLTFGDFLPGEVDDLTDSDWSTHHHHHH
- Kd: 0.078 µM
